Measured values published in the supplement of paper PMC12042874.
± gives the uncertainty stated by the source.

test: amyloid nucleation score (Sup35N fusion, yeast selection) (log enrichment); library NNK1; higher = more nucleation; inactive = no reads after selection
Outline: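 Three technical output replicates were used for random libraries. Psi-negative yeast expressing peptides of 20 random codons fused to Sup35N were induced with 100 μM copper sulfate for 24 hours and grown 7 days at 30°C on medium lacking adenine and uracil, and input and output plasmid inserts were Illumina-sequenced, excluding sequences with under 100 input reads. The nucleation score is the DiMSum log enrichment of output over input reads, centred on the mode score of non-aggregating sequences.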

| Substance | amyloid nucleation score |
| --- | --- |
| ATGSMGQSSSTGDASKLASF | 1.3 ± 0.32 |
| YLWMFCYMYREVAIRVNVGG | 0.1 ± 0.34 |
| TRCPV | 0.253 ± 0.66 |
| RDAIYYKICLAQPRSF | -0.465 ± 0.38 |
| NDYEELIMYFKEDVF | 1.76 ± 0.5 |
| IYWCMM | 7.125 ± 0.057 |
| HVFIIQRMSWGVLRLLVSCR | -0.548 ± 0.52 |
| FFILRNQRPIC | 1.76 ± 0.2 |
| RQARFSFDLRFP | 0.567 ± 0.35 |
| VACLKRW | -0.29 ± 0.42 |
| RIVLILRSNHCQNSY | 0.641 ± 0.3 |
| FLIEMCYV | -0.484 ± 0.88 |
| MISDFSNVIMLVCIPCFLYV | 5.13 ± 0.067 |
| NDSICTYSMAWGRERSGVCY | inactive |
| NPNTKYINCPHRVAFRGKLM | 0.552 ± 0.74 |
| SALWRNFSALRSNWK | -0.325 ± 0.34 |
| YNGGCACMEAVMRFGGFFTL | -0.066 ± 0.28 |
| ELEPCDPGF | inactive |
| NFCVSVVFP | 1.84 ± 0.54 |
| LPWPRNRFCTLIDEIHTPVY | -0.167 ± 0.57 |
| LSPRSSA | -0.322 ± 0.65 |
| LNAKFIVKW | 0.588 ± 0.21 |

| Substance | amyloid nucleation score |
| --- | --- |
| RYILLVYVTCDRKVRAMKGV | 0.883 ± 0.33 |
| TVNTYSANDYVRTMVCELSV | inactive |
| CSFLRFQIVMCCRLLDRVLC | 1.72 ± 0.63 |
| RFCISNARRRFLRPFGSYL | 0.072 ± 1.1 |
| VKRRVSDTHVSCVKGHGSVC | inactive |
| FVMLFSCRST | 0.38 ± 0.76 |
| ATRFIEESTL | -0.942 ± 0.68 |
| LISGKYLYSPTALLDHIL | 0.484 ± 0.68 |
| TLSFIRAYSVPHQVLRMESL | 0.87 ± 0.64 |
| TVLPF | 1.6 ± 0.55 |
| YNVQVLQVGGRLCRNKCSSC | 7.825 ± 0.061 |
| YGRGESMLHAGGNWEWTGQE | 0.09 ± 1.1 |
| YSINTCCQLVIIDPGSSYEM | 6.634 ± 0.047 |
| DDTIFLMRAIMVFNLICWCV | inactive |
| VRMIT | 0.388 ± 0.64 |
| RFTGQWWYVFSLWAILSRIK | 0.357 ± 0.55 |
| KLDGVVPDVYLSGRLPQAWL | 0.205 ± 0.86 |
| CSGCYPRLCESMLNGNSGYV | 1.31 ± 0.31 |
| RLFVVEELESWGCFNWASIM | -1.7 ± 2.4 |
| IIQSSTGLWFIIRKVDATYV | 0.812 ± 0.28 |
| WRLFIWDRGSLWFEISYYFR | -0.164 ± 0.3 |
| IRMLSRSLSKMSIIFHGGKG | 1.33 ± 0.46 |

| Substance | amyloid nucleation score |
| --- | --- |
| KGFVDNYVTVIVVWT | 1.64 ± 0.18 |
| YVFFCIHTVGTPLGNCSIDV | inactive |
| HLVLFYVSLITFARYSFMGV | -0.058 ± 0.3 |
| DNTHSSFIHFETGKKYYA | 0.319 ± 0.78 |
| TTRSSGIFSDEGKQACSDRG | 0.091 ± 0.74 |
| YRPLVTPALSLTLNRFKVDV | 0.187 ± 0.35 |
| DIVDARFTLTGFKFECVR | 0.297 ± 0.28 |
| SLQFLSKPHLLRESVSESVD | 0.381 ± 0.35 |
| SLYTKLAVPLGKWRIGYRLT | 0.46 ± 0.58 |
| IIFELKGLPLKNGMRGLKPL | -0.579 ± 0.34 |
| TIILSRLVEGVMQWAFMRAF | inactive |
| QHEDISPPKLPIVNSAIPFV | 0.335 ± 0.54 |
| LLPWGYD | 2.77 ± 0.15 |
| RCRYVRLETSLC | -0.083 ± 0.47 |
| WLNSEAWDYLATLGLSFNYS | 0.761 ± 0.75 |
| PLHWS | 0.416 ± 0.3 |
| FGIIGEERNLRAAPMAGGRP | -0.455 ± 1.2 |
| FLATYLMEVYMMDSWNF | -1.65 ± 1.4 |
| GLLFVKGTVDRQAWSGFEAH | -0.796 ± 1.2 |
| LEMGDPCQYCLDLFAGYPSG | 0.549 ± 0.55 |
| NGYFYTTYASDVPRRYVPYL | 0.387 ± 0.33 |
| PFIDNRFKLFRSDGTVRWVI | inactive |

| Substance | amyloid nucleation score |
| --- | --- |
| DRWRSL | -0.582 ± 0.96 |
| KFVYVVVMSMARACRNVPGH | 0.272 ± 0.39 |
| HCSFSWGYRWLGWTTKSGNM | 1.31 ± 0.4 |
| LYDLNIKWWRGASLVECECL | 0.139 ± 0.41 |
| RIWDCRYCKG | -0.184 ± 0.29 |
| PSFMMFKSYTPQDFGMH | -0.318 ± 0.99 |
| YFPVGWLTLGISPCGVGDLF | -0.151 ± 0.43 |
| DLYFIKDSTLCTISLFLIYW | 0.324 ± 1.2 |
| NSTPLADRCSVGMLPALKAD | -0.351 ± 0.63 |
| RTGSAASG | -0.564 ± 0.38 |
| HQKACCSRLMNCGYNSAKWR | -0.612 ± 0.89 |
| MRDLALLAEVLVTD | 0.295 ± 0.4 |
| MRCPRLASSDNDPCLLSRVS | 0.357 ± 0.39 |
| VSRVDCDNFGLRSRVSAL | 0.503 ± 0.37 |
| FSEVSNWVFLNIYYVAFF | 0.934 ± 0.25 |
| DRVCILEQLDRSRGATVCAR | 1.24 ± 0.76 |
| ITTIMTAVTVSPPQSMWFVS | 1.96 ± 0.25 |
| NLFVSYSTDNSSTFMWDSVR | 4.44 ± 0.058 |
| SCFPLLRQFAGWLSWSRT | 2.28 ± 0.18 |
| GYMFPVFSMIGFLNTNVWSK | 3.27 ± 0.15 |
